Test results: patent publication US20150087046A1 (SPIBER TECHNOLOGIES, published 2015)

B1: NTCT (control) film (other)
chain: HHHHHHMSHTTPWTNPGLAENFMNSFMQGLSSMPGFTASQLDDMSTIAQSMVQSIQSLAAQGRTSPNKLQALNMAFASSMAEIAASEEGGGSLSTKTSSIASAMSNAFLQTTGVVNQPFINEITQLVSMFAQAGMNDVSASASAGASAAASAGAGSGNSGIQGYGQSSASASAAASAASTVANSVSRLSSPSAVSRVSSAVSSLVSNGQVNMAALPNIISNISSSVSASAPGASGCEVIVQALLEVITALVQIVSSSSVGYINPSAVNQITNVVANAMAQVMG
notes: also called His6NT-CT; His6NTCT
B2: CT (control) film (other)
chain: SRLSSPSAVSRVSSAVSSLVSNGQVNMAALPNIISNISSSVSASAPGASGCEVIVQALLEVITALVQIVSSSSVGYINPSAVNQITNVVANAMAQVMG
B3: His6-ABD-CT fusion protein (other)
chain: MGHHHHHHMLAEAKVLANRELDKYGVSDYYKNLINNAKTVEGVKALIDEILAALPGNSGIQGYGQSSASASAAASAASTVANSVSRLSSPSAVSRVSSAVSSLVSNGQVNMAALPNIISNISSSVSASAPGASGCEVIVQALLEVITALVQIVSSSSVGYINPSAVNQITNVVANAMAQVMG
notes: Tested as a solid film (polymer of the fusion protein) cast in 96-well plates from 15 ul of 1 mg/ml protein
B4: His6-ABD-NTCT fusion protein (other)
chain: MGSSGHHHHHHMLAEAKVLANRELDKYGVSDYYKNLINNAKTVEGVKALIDEILAALPGNSSHTTPWTNPGLAENFMNSFMQGLSSMPGFTASQLDDMSTIAQSMVQSIQSLAAQGRTSPNKLQALNMAFASSMAEIAASEEGGGSLSTKTSSIASAMSNAFLQTTGVVNQPFINEITQLVSMFAQAGMNDVSAGNSGIQGYGQSSASASAAASAASTVANSVSRLSSPSAVSRVSSAVSSLVSNGQVNMAALPNIISNISSSVSASAPGASGCEVIVQALLEVITALVQIVSSSSVGYINPSAVNQITNVVANAMAQVMG
notes: as for B3
B5: His6-scFv1-NTCT fusion protein (scFv)
chain: MGSSGHHHHHHMEVQLLESGGGLVQPGGSLRLSCAASGFTFSSYEMNWVRQAPGKGLEWVSGISGSGGFTYYADSVKGRFTISRDNSKNTLYLQMNSLRAEDTAMYYCAREGYQDAFDIWGQGTLVTVSSGGGGSGGGGSGGGGSQSVLTQPPSASGTPGQRVTISCTGSSSNIGAGYDVHWYQQLPGTAPKLLIYSNNQRPSGVPDRFSGSKSGTSASLAISGLRSEDEADYYCAAWDDSLSGPPWVFGGGTKLTVLGEQKLISEEDLSGSAAAGNSSHTTPWTNPGLAENFMNSFMQGLSSMPGFTASQLDDMSTIAQSMVQSIQSLAAQGRTSPNKLQALNMAFASSMAEIAASEEGGGSLSTKTSSIASAMSNAFLQTTGVVNQPFINEITQLVSMFAQAGMNDVSAGNSGIQGYGQSSASASAAASAASTVANSVSRLSSPSAVSRVSSAVSSLVSNGQVNMAALPNIISNISSSVSASAPGASGCEVIVQALLEVITALVQIVSSSSVGYINPSAVNQITNVVANAMAQVMG

Key:
[1] = target: T1, albumin from human blood plasma (human, UniProt P02768 25-609); test: film incubated with plasma, acid elution, non-reducing SDS-PAGE
T1 construct: Not purified: the albumin source was diluted human blood plasma
Experimental: (§1) To evaluate the ability of ABD-NTCT films to bind albumin, human blood plasma was used as albumin source. Four films of ABD-NTCT and ABD-CT were pre-wetted with 150 μl of 1×PBS followed by incubation of 100 μl of human blood plasma (1:5 dilution) for 30 min at room temperature. After washing three times with 200 μl 1×PBS, bound albumin was eluted in 50 μl by lowering the pH to approximately 2.7 with elution buffer (i.e. 0.5 M acetic acid, 1 M urea, 100 mM NaCl), after which the eluted fractions were analyzed by non-reducing SDS-PAGE. Films of NTCT and CT were used as control material, and were treated in the same way.

[2] = target: T1, albumin from human blood plasma; test: film incubated with human blood plasma (1:5), acid elution, non-reducing SDS-PAGE
Experimental: Films of His₆-ABD-CT were casted in 96-well plates (Tissue culture plate, Suspension cells, 83.1835.500, Sarstedt) from 15 μl of 1 mg/ml soluble fusion protein per film. The films were then allowed to solidify over night (20° C., 35% relative humidity). The same procedure was followed for casting films of His₆-ABD-NTCT from 15 μl of 1 mg/ml protein solution.
as §1

[3] = target: biotinylated antigen sample (antigen recognised by scFv1, specific for Systemic Lupus Erythematosus); test: microarray of spotted films, 10 nM biotinylated antigen, Alexa-647-streptavidin, spot intensity; reference: pure scFv1 control

T1 sequence (P02768 25-609 limits assumed): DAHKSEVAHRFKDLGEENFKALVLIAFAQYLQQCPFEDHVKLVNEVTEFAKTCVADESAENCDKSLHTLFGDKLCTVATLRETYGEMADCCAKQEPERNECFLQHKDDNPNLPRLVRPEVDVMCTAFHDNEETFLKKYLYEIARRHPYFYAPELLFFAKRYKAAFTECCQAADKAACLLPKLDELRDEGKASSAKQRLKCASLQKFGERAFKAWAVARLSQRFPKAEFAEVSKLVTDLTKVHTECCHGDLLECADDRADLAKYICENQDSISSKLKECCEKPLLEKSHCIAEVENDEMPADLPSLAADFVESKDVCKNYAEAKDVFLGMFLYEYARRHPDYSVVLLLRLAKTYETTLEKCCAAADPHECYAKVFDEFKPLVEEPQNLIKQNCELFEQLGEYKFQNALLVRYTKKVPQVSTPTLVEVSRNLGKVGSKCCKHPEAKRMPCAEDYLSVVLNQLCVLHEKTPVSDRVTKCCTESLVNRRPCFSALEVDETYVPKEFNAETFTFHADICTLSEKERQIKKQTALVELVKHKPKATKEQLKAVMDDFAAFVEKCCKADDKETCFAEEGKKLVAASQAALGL

Row | Binder | binding result [1] | binding result [2] | other results
1 | B1 | no binding (tested: human blood plasma (1:5 dilution)) |  | 
2 | B2 | no binding (tested: human blood plasma (1:5 dilution)) |  | 
3 | B3 |  | binds | 
4 | B4 |  | binds | 
5 | B5 |  |  | fold increase of antigen recognition against the scFv1 control [3]: 25 times
